Measurements from patent US20170247475A1 (Boehringer Ingelheim, published 2017).
Changes are numbered by the printed parent chain. Names may count otherwise.

T1: human VEGF-C (human, UniProt P49767 103-227)
T1 construct: also called hVEGF-C
T1 sequence (looked up): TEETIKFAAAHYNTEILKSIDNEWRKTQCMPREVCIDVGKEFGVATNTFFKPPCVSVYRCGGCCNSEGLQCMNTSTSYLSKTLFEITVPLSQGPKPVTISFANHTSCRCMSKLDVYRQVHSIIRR

B1: human VEGFR2-Fc chimera (Fc fusion, UniProt P35968 20-764, looked up, not shown: a dimerising Fc or GST)
chain: ASVGLPSVSLDLPRLSIQKDILTIKANTTLQITCRGQRDLDWLWPNNQSGSEQRVEVTECSDGLFCKTLTIPKVIGNDTGAYKCFYRETDLASVIYVYVQDYRSPFIASVSDQHGVVYITENKNKTVVIPCLGSISNLNVSLCARYPEKRFVPDGNRISWDSKKGFTIPSYMISYAGMVFCEAKINDESYQSIMYIVVVVGYRIYDVVLSPSHGIELSVGEKLVLNCTARTELNVGIDFNWEYPSSKHQHKKLVNRDLKTQSGSEMKKFLSTLTIDGVTRSDQGLYTCAASSGLMTKKNSTFVRVHEKPFVAFGSGMESLVEATVGERVRIPAKYLGYPPPEIKWYKNGIPLESNHTIKAGHVLTIMEVSERDTGNYTVILTNPISKEKQSHVVSLVVYVPPQIGEKSLISPVDSYQYGTTQTLTCTVYAIPPPHHIHWYWQLEEECANEPSQAVSVTNPYPCEEWRSVEDFQGGNKIEVNKNQFALIEGKNKTVSTLVIQAANVSALYKCEAVNKVGRGERVISFHVTRGPEITLQPDMQPTEQESVSLWCTADRSTFENLTWYKLGPQPLPIHVGELPTPVCKNLDTLWKLNATMFSNSTNDILIMELKNASLQDQGDYVCLAQDRKTKKRHCVVRQLTVLERVAPTITGNLENQTTSIGESIEVSCTASGNPPPQIMWFKDNETLVEDSGIVLKDGNRNLTIRRVRKEDEGLYTCQACSVLGCAKVEAFFIIEGAQEKTNLE
notes: bought (R&D Systems); also called hVEGFR2-Fc; VEGFR2-huFc
B2: VEGFBII10C07 (VHH)
VHH: EVQLVESGGGLVQAGGSLSLSCAASARAFSNYAMGWFRQVPGREREFVAVITRSPSNTYYTDSVKGRFTISRDNAKNIVYLQMNSLKPEDTAVYYCAAHYWNSDSYTYTDSRWYNYWGQGTQVTVSS
B3: VEGFBII08D09 (VHH)
VHH: EVQLVESGGGLVQAGGSLRLSCAASGRSFSDNVMGWFRQAAGKEREFVAHISRGGSRTEYAESVKGRFTISRDNTKKTMYLQMNSLKPEDTAVYYCAASRSVALATARPYDYWGQGTQVTVSS
B4: VEGFBII05B02 (VHH)
VHH: EVQLVESGGGLVQAGGSLRLSCAASGRTFSTDDVGWFRQAPGKEREFVAVIRWSTGGTYTSDSVKGRFTLSRDNAKNTMYLQMNSLKPEDTAVYYCAARSRPLGAGAWYSGEKHYNYWGQGTQVTVSS
B5: VEGFBII06G02 (VHH)
VHH: EVQLVESGGGLVQPGGSLRLSCAASGNIFSNNAMAWYRQAPGKQRELVARISSGGGFTYYLDSVKGRFTVSRDNAKNTVYLQMNSLKPEDTAVYYCNAAYRTYNYWGQGTQVTVSS
B6: VEGFBII11E04 (VHH)
VHH: EVQLVESGGGLVQAGGSLRLSCAASGRTFSSYAMGWFRQAPGKEREFVATISQSGYSTYYADSVKGRFTISRDNAKNTVNLQMNSLKPEDTAVYYCAADPFYSYGSPSPYRYWGQGTQVTVSS
B7: VEGFBII07D08 (VHH)
VHH: EVQLVESGGGLVQTGGSLRLSCAASGRTFSNYAMAWFRQAPGKEREFVSAINQRGSNTNYADSVKGRFTISRDSAKNSVFLQMNSLKPEDTAVYYCAASTWYGYSTYARREEYRYWGQGTQVTVSS
B8: VEGFBII10E07 (VHH)
VHH: EVQLVESGGGLVQAGGSLRLSCAASGRTFSNYAMGWFRQAPGKERVLVADISSSGINTYVADAVKGRFTISRDNAKNTVYLQMNSLKPEDTAVYYCAASAWWYSQMARDNYRYWGQGTQVTVSS
B9: VEGFBII11E05 (VHH)
VHH: EVQLVESGGGLVQPGGSLRLSCASSGRLFSFSAMGWFRQAPGKEREFVAAFKWSGSTTYYADYVKGRFTISTDNAKNILFLQMNSLKPEDTAIYYCAVDRFYTGRYYSSDEYDYWGQGTQVTVSS
B10: VEGFBII10G04 (VHH)
VHH: EVQLVESGGGLVQAGGSLRLSCAASGDTLSRYAMGWFRQAPGKEREFVASINTSGKRTSYADSMKGRFAVSRDNAKNTGYLQMNSLKLEDTATYYCAADRFFGSDSNEPRAYRYWGQGTQVTVSS
B11: VEGFBII05B03 (VHH)
VHH: EVQLVESGGGLAQAGDSLRLSCAASGRSFSHYNMGWFRQAPGKEREFVASIRGGGGSTTYANSVKDRFTISRENAKNTVYLQMNSLKPEDTAVYYCAATAFYRGPYDYDYWGQGTQVTVSS
B12: VEGFBII03D12 (VHH)
VHH: EVQLVESGGGLVQAGGSLRLSCTASTSIYTITVMAWFRQAPGKEREFVAAITWSAPTTYYADSVKGRFTISRDNAKNTVYLRMNSLKPEDSAIYYCAADRFKGRSIVTPSDYRYWGQGTQVTVSS
B13: VEGFBII41C05 (VHH)
VHH: EVQLVESGGGLVQAGGSLRLSCAASGRTFSVYTMGWFRQAPGKEREFVATISRTGDRTSYANSVKGRFTISRENAKNTVYLQMNSLKPEDTAVYSCAAGPIAPSPRPREYYYWGQGTQVTVSS
B14: VEGFBII10G05 (VHH)
VHH: EVQLVESGGGLVQAGESLRLSCVASGITFSNYNMGWFRQAPGKEREFVATIRHHGYDTYYAESVKGRFTISRDNAKNTVYLQMNSLKPEDTALYSCAKKLFWDMDPKTGFSSWGQGTQVTVSS
B15: VEGFBII11F12 (VHH)
VHH: EVQLVESGGGLVQSGGSLRLSCAASGRSFSSLAMGWFRQVPGKDREFVASISQSGITTSYADSVKSRFTISRDSAKNTVYLQMNLLKPEDTAVYYCATSVFYSTALTRPVDYRYWGQGTQVTVSS
B16: VEGFBII86H09 (VHH)
VHH: EVQLVESGGGLVQAGGSLRLSCTASGSAFKSYRMGWFRRTPGKEDEFVASISWTYGSTFYADSVKGRFTMSRDKAKNAGYLQMNSLKPEDTALYYCAAGAQSDRYNIRSYDYWGQGTQVTVSS
B17: VEGFBII11D09 (VHH)
VHH: EEQLVESGGGLVQAGGSLMLSCAASGRALSSYAIGWFRQAPGREREFVARISWSGANTYYADSVKGRFTISRGNAKNTVYLQMNSLKPEDTAAYYCAAQTTSKYDNYDARAYGYWGQGTQVTVSS
B18: VEGFBII11C08 (VHH)
VHH: EVQLVESGGGLVQAGGSLRLSCAASGRTLSSYGLGWFRQAPGKEREFVAAIGWSGSSTYYADSVKGRFTVSVDNAKNTVYLKMNSLEPEDTAVYYCAAKVRNFNSDWDLLTSYNYWGQGTQVTVSS
B19: VEGFBII114D03 (VHH)
VHH: EVQLVESGGGLVQTGDSLRLSCAVSGRTFSSYSMGWFRQAQGKEREFVVAISKGGYKYDSVSLEGRFTISKDNAKNTVYLQINSLRPEDTAVYYCASSRAYGSSRLRLADTYEYWGQGTLVTVSS
B20: VEGFBII118E10 (VHH)
VHH: B19 VHH with A23E, S60A, R86K, L120Q
notes: VEGFBII23B04 with the S60A mutation, purified protein
B21: VEGFBII119G11 (VHH)
VHH: EVQLVESGGGLVQPGGSLRLSCAASGIRFMSMAWYRQAPGKQRELVARISSGGTTAYADSVKGRFTISRDNSKNTVYLQMNSLRAEDTAVYYCNTFSSRPNPWGQGTLVTVSS
notes: humanization variant of VEGFBII5B05; tested as periplasmic extract
B22: VEGFBII120E10 (VHH)
VHH: B21 VHH with A23V, M30I, Q42H, A58V, R84K, Q105A, L108Q
notes: VEGFBII5B05 with the M30I mutation; tested as periplasmic extract

biological target: T1, human VEGF-C; test: binding ELISA on coated VEGFC
Procedure: Binding to VEGFB, VEGFC, VEGFD and PIGF is assessed via a solid phase binding ELISA. In brief, VEGFB, VEGFC, VEGFD and PIGF (R&D Systems, Minneapolis, Minn., USA) are coated overnight at 4° C. at 1 μg/mL in a 96-well MaxiSorp plate (Nunc, Wiesbaden, Germany). Wells are blocked with a casein solution (1% in PBS). […] As positive controls serial dilutions of the appropriate receptors are taken along and detected with horseradish peroxidase (HRP)-conjugated goat anti-human IgG, Fc specific antibody (Jackson Immuno Research Laboratories Inc., West Grove, Pa., USA) and a subsequent enzymatic reaction in the presence of the substrate TMB (3,3′,5,5′-tetramentylbenzidine) (Pierce, Rockford, Ill., USA).

Row | EC50 (read off the curve) [nM] | Binder
1 | ~4 | B1

biological target: T2, recombinant human VEGF165 (human, UniProt P15692-4 27-191); test: Biacore epitope binning, VEGF165 captured on immobilised VEGFBII23B04
T2 construct: also called hVEGF165; rhVEGF165
T2 sequence (P15692 other isoform, or with tags, fused parts or gaps limits assumed): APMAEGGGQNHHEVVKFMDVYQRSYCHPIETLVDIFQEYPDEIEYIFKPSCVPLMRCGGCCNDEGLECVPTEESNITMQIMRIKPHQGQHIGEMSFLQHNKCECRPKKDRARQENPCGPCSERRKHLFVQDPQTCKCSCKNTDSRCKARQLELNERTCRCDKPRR
Procedure: Biacore-based epitope binning experiments are performed to investigate which VEGF binders bind to a similar or overlapping epitope as VEGFBII23B04. To this end, VEGFBII23B04 is immobilized on a CM5 sensor chip. […] Purified VHHs (100 nM) or periplasmic extracts (1/10 diluted) are then injected with a surface contact time of 240 seconds and a flow rate of 10 uL/minute. Between different samples, the surface is regenerated with regeneration buffer (100 mM HCl). Processed curves are evaluated with Biacore T100 Evaluation software.

Row | binding result | Binder
2 | binds | B2
3 | binds | B3
4 | binds | B4
5 | binds | B5
6 | binds | B6
7 | binds | B7
8 | binds | B8
9 | binds | B9
10 | binds | B10
11 | binds | B11
12 | binds | B12
13 | binds | B13
14 | binds | B14
15 | binds | B15
16 | binds | B16
17 | binds | B17
18 | binds | B18

biological target: T2, recombinant human VEGF165; test: VEGF165/VEGFR2 AlphaScreen

Row | % inhibition [%] | IC50 [nM] | Binder
19 | 100 | 0.227 | B19
20 | 100 | 0.189 | B20

biological target: T2, recombinant human VEGF165; test: ProteOn, periplasmic extract 1/10 on hVEGF165 chip
Text: One additional variant is constructed in which the potential oxidation site at position M30 (CDR1 region, see FIG. 19 indicated as bold italic residue) is removed by introduction of a M30I mutation.

Row | Binding level (RU) | koff [s⁻¹] | Binder
21 | 234 | 0.0775 | B21
22 | 257 | 0.0468 | B22
